Results on eleven substances are retold here after PMC6914384 (Nature, 2018).

No end group written: not given here.

The first experiment concerns the target T1, p300 BRP (Homo sapiens, UniProt Q09472).
T1 sequence (Q09472 1048-1282): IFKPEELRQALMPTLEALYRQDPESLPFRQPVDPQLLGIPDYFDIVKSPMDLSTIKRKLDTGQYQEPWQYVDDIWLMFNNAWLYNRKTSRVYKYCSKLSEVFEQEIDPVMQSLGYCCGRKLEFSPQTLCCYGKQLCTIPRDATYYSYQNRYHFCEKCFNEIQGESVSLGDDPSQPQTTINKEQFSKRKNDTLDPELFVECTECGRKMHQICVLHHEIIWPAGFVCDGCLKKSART
Description: ITC of histone and AIL peptides with p300 BRP. The experiment is classed as binding. The following applies: p300 BRP module, Kd cell prints --.
On to “AIL K1549K1558K1560tri-ac (1545-1562): p300 autoinhibitory loop peptide 1545-1562 acetylated on K1549, K1558, K1560 (SKNAK(Ac)KKNNKKTSK(Ac)NK(Ac)SS)”, for which the “Binding by ITC, result in words (printed in column N)” value (“Binding by ITC, result in words” below) was “No binding”.

Regarding “H3T11pho (1-20): histone H3 peptide 1-20, T11 phosphorylated”, the “Binding by ITC, result in words” value was “No binding”.

With “H4 K16ac (4-24): histone H4 peptide 4-24, K16ac”, the “Binding by ITC, result in words” value is “No binding”.

Turning to SKNAKKKNNKKTSKNKSS [AIL (1545-1562)], the “Binding by ITC, result in words” value is “No binding”.

With “H3 S10pho (1-20): histone H3 peptide 1-20, S10 phosphorylated”, the “Binding by ITC, result in words” value is listed as “No binding”.

In the case of “H3 K4me3 (1-20): histone H3 peptide 1-20, K4me3”, the “Binding by ITC, result in words” value is “No binding”.

Regarding “ARTKQTQRKSTGGKAPRKQL [H3 unmodified (1-20)]”, the “Binding by ITC, result in words” value was “No binding”.

Take “H3 K4me1 (1-20): histone H3 peptide 1-20, K4me1”: the “Binding by ITC, result in words” value is “No binding”.

On to “H3 K9ac (1-20): histone H3 peptide 1-20, K9ac”, for which the “Binding by ITC, result in words” value was “No binding”.

As for “H4 K5ac (4-24): histone H4 peptide 4-24, K5ac”, the “Binding by ITC, result in words” value was “No binding”.

Staying with this experiment, now noted: p300 BRP module, mean and s.d. of experiments in triplicate.
On to “H3 K18ac (1-20): histone H3 peptide 1-20, K18ac”, for which the “Kd (μM)” value is reported as “large”.
